Data published in patent US9156883B2, “Binding molecules for human factor VIII and factor VIII-like proteins” (DYAX CORP., priority 1999, dated 2015).
Positions of bridges follow the written chain, without caps; N, C: chain ends. No end group written: not given here. *: point of attachment. NHNH2 = NN*

Target: T1, REFACTO® (Homo sapiens, UniProt P00451)
T1 construct: amino acids 1-743 and 1638 through 2332 of human factor VIII; purchased Genetics Institute, Inc. (Cambridge, Mass.)
T1 sequence (P00451 20-762): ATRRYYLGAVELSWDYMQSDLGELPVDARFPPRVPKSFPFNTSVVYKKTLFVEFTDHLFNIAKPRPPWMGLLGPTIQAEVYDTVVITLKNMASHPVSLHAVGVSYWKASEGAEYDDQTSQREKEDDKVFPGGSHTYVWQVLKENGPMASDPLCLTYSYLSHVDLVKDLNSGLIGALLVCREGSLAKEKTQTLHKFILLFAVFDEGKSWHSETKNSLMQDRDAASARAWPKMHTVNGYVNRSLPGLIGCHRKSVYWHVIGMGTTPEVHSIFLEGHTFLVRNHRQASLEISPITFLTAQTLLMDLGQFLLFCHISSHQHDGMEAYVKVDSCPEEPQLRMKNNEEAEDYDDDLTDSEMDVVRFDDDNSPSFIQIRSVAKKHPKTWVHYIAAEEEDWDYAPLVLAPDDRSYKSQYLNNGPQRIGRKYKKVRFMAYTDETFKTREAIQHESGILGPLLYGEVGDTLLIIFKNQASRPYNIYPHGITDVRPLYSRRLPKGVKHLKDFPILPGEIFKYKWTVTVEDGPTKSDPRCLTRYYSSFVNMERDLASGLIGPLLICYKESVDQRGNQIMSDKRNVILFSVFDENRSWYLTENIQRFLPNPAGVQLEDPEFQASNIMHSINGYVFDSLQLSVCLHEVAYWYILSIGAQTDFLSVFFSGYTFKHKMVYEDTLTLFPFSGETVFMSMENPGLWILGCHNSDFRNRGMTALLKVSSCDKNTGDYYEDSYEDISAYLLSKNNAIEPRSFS
T1 sequence (P00451 1657-2351): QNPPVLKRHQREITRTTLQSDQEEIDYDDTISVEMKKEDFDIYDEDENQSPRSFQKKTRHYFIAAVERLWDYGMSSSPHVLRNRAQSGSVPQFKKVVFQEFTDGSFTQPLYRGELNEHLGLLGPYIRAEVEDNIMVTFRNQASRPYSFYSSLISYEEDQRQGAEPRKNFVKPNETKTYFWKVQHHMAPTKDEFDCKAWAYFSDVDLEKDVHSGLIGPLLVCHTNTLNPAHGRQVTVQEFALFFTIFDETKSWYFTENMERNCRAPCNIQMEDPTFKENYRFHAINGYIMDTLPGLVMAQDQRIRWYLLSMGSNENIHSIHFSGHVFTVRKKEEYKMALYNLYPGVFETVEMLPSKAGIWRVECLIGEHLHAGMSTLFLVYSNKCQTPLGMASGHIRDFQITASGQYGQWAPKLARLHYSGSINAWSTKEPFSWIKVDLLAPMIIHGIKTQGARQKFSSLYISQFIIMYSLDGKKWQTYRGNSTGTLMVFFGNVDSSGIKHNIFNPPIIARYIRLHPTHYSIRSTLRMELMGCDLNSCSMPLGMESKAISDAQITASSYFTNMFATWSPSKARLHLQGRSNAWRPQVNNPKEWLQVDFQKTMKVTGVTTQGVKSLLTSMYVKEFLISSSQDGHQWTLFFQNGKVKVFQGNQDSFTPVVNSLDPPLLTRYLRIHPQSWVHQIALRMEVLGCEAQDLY
Experiment: Batch binding and elution of REFACTO® with immobilized polypeptide ligands (factor VIII sandwich ELISA)
Conditions: for % of Input Recovered in: Eluate: Buffer A, 50% ethylene glycol, pH 6.3, 15 minutes; for % of Input Recovered in: Unbound: REFACTO® ~50 U in Buffer 1, 1 h RT, supernatant after binding; for % of Input Recovered in: Total: Unbound, Wash and Eluate fractions together; for % of Input Recovered in: Wash: one wash with Buffer 1
Excerpt: A commercial ELISA kit (IMUBIND fVIII ELISA kit, Product #884, American, Inc., Greenwich, Conn.) developed to detect factor VIII was used according to the manufacturer's specifications in order to detect both the REFACTO® and the nhfVIII targets. The kit employs a sandwich ELISA assay in which the target is captured by an immobilized monoclonal antibody and the captured target is detected with a second monoclonal antibody-horseradish peroxidase (HRP) conjugate. Addition of the peroxidase substrate and its subsequent reaction with the HRP produces a blue color (detected at 630 nm) which changes to yellow (detected at 450 nm) on addition of the 0.5N sulfuric acid stop solution. Color response is calibrated with factor VIII standards provided by the manufacturer.
REFACTO® binding was tested in Buffer 1. The binding of both REFACTO® and nfhVIII were tested using three affinity resins prepared as in Example II, using the affinity peptides CS-454, CS-456, and CS-458 immobilized on Toyopearl Formyl 650-M medium. Ligand density for each polypeptide was 1.79 mg/ml (0.67 μmol/ml), 3.69 mg/ml ([…]) and 3.15 mg/ml (1.17 μmol/ml) respectively.
For each of the three immobilized peptides tested, peptide-beads from […] of a 50% slurry of Toyopearl-coupled polypeptide suspension were centrifuged briefly (30 seconds at 2000×g at room temperature), the supernatant fluid was removed, and the beads (pellets) were washed two times. For each wash, the beads were resuspended in 500 μl of Buffer 1 and centrifuged as before.
The stock solution of REFACTO® was diluted to a final concentration of 200 U/ml in Buffer 1 and 250 μl of the diluted solution (˜50 U total) was added to a washed pellet of each of the peptide-beads. The suspension was incubated on an end-over-end mixer at RT for one hour, after which binding period the beads were pelleted by centrifugation (30 seconds, 2000×g) and the supernatant solutions, representing the unbound fraction (“Unbound” in Table 7, below), were removed and retained for assay of unbound factor VIII activity.
The pelleted beads were washed one time by adding 250 μl of Buffer 1, mixed briefly and the suspension centrifuged as before. The supernatant solutions (“Wash” in Table 7) were removed and retained for assay of factor VIII activity.
The washed pellets were resuspended in 250 μl of Buffer A (20 mM L-Histidine-HCl, 250 mM NaCl, 20 mM CaCl2, 0.01% Tween 80, 50% ethylene glycol, pH 6.3) and incubated on an end-over-end mixer for 15 minutes at room temperature. At the end of the elution period, the suspensions were centrifuged as above. The supernatant solutions (“Eluate” in Table 7) were removed and retained for assay of eluted factor VIII activity.
The starting (diluted) REFACTO® solution (Input) and each sample (Unbound, Wash, and Eluate) taken as described above were diluted 1:1400 in Assay Diluent (provided with kit), then subjected to ELISA using the commercial factor VIII assay kit.

Row | Substance | % of Input Recovered in: Eluate [%] | % of Input Recovered in: Unbound [%] | % of Input Recovered in: Total [%] | % of Input Recovered in: Wash [%]
1 | AEGTGDHLCGAWFRPCDADPGPEGGGS-NHNH2 (disulfide 9-16 (inferred)) [CS-454] | 49 | 24 | 85 | 
2 | AEGTGDFGCSWLFPCPFDPGPEGGGS-NHNH2 (disulfide 9-15 (inferred)) [CS-456] | 24 | 47 | 91 | 20
3 | AEGTGDFCWVFAFDHCHDPGPEGGGS-NHNH2 (disulfide 8-16 (inferred)) [CS-458] | 47 | 20 | 76 | 10
